Measured values: the supplement of paper PMC10065799, “High-throughput profiling of sequence recognition by tyrosine kinases and SH2 domains using bacterial peptide display” (eLife, 2023)

What was measured:
Jak2 = Jak2 (UniProt O60674); assay: phosphorylation enrichment, bacterial display (enrichment ratio); higher = better substrate or ligand; peptides without Tyr show the background
c-Abl (mouse) = assay: as above
c-Src = assay: as above
FGFR1 = FGFR1 (UniProt P11362); assay: as above
EPHB1 = EPHB1 (UniProt P54762); assay: as above
Hck = Hck (UniProt P08631); assay: as above
Fer (mouse) = assay: as above
EPHB2 = EPHB2 (UniProt P29323); assay: as above
FGFR3 = FGFR3 (UniProt P22607); assay: as above
AncSZ = assay: as above
MERTK = MERTK (UniProt Q12866); assay: as above
Fyn = Fyn (UniProt P06241); assay: as above
Fes = Fes (UniProt P07332); assay: as above
SHP2-C SH2 = assay: SH2 binding enrichment of the phosphorylated peptide, bacterial display (enrichment ratio); higher = better substrate or ligand; peptides without Tyr show the background
Grb2 SH2 = Grb2 SH2 (UniProt P62993); assay: as above
c-Src SH2 = assay: as above
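Wherever SH2 binding enrichment of the phosphorylated peptide, bacterial display is given: peptide library displayed on the E. coli surface as eCPX fusions, selected cells deep-sequenced, score is each peptide's frequency after selection divided by its frequency in the input.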
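Wherever phosphorylation enrichment, bacterial display is given: 11-residue human phosphosite peptides and single-mutation variants displayed on the E. coli surface, counted by deep sequencing, each peptide's frequency after selection divided by its frequency in the unselected input library; frequency after pTyr selection over input frequency; kinase dosed for 20-30% of maximal phosphorylation in three min.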

Chain of Fyn (P06241 whole entry, looked up): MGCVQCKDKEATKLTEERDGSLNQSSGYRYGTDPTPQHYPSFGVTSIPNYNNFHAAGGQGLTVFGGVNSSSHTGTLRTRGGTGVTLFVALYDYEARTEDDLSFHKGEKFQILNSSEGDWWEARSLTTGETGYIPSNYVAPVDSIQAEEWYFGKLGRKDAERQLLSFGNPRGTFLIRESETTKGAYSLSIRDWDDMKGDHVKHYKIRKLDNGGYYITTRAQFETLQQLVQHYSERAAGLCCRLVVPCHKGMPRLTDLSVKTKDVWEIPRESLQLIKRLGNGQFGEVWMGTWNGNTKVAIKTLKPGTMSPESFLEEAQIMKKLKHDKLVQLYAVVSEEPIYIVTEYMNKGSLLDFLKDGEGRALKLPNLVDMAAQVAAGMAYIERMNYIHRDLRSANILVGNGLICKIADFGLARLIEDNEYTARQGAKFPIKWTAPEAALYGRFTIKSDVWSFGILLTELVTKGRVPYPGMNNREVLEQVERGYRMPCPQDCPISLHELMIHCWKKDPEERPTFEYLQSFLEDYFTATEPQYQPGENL
Chain of EPHB2 (P29323 whole entry, looked up): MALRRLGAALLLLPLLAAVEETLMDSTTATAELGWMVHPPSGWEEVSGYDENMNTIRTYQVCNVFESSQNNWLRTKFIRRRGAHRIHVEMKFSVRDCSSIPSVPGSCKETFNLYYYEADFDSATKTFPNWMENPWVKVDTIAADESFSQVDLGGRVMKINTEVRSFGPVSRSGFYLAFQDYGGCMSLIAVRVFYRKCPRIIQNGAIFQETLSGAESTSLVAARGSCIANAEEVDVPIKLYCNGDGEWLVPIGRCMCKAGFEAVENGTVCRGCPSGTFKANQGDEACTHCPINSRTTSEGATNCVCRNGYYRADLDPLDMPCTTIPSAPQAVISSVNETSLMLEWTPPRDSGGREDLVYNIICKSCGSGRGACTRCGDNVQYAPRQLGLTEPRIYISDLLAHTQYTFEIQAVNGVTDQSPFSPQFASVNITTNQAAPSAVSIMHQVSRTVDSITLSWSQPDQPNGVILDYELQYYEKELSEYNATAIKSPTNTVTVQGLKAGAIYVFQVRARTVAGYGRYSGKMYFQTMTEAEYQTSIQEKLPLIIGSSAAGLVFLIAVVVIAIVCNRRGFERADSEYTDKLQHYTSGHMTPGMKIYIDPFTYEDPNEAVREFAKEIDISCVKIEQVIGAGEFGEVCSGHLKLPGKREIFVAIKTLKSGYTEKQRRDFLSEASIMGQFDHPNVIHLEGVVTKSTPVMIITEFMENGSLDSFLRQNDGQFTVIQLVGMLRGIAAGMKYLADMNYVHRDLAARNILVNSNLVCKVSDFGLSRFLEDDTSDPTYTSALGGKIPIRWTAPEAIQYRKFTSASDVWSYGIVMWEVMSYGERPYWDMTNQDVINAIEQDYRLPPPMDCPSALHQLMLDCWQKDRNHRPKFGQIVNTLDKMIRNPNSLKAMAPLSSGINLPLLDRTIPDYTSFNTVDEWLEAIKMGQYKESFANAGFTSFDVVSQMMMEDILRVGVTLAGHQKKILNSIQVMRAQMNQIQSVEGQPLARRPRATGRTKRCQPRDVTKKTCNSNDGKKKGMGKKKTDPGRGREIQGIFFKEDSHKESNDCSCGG
Chain of EPHB1 (P54762 whole entry, looked up): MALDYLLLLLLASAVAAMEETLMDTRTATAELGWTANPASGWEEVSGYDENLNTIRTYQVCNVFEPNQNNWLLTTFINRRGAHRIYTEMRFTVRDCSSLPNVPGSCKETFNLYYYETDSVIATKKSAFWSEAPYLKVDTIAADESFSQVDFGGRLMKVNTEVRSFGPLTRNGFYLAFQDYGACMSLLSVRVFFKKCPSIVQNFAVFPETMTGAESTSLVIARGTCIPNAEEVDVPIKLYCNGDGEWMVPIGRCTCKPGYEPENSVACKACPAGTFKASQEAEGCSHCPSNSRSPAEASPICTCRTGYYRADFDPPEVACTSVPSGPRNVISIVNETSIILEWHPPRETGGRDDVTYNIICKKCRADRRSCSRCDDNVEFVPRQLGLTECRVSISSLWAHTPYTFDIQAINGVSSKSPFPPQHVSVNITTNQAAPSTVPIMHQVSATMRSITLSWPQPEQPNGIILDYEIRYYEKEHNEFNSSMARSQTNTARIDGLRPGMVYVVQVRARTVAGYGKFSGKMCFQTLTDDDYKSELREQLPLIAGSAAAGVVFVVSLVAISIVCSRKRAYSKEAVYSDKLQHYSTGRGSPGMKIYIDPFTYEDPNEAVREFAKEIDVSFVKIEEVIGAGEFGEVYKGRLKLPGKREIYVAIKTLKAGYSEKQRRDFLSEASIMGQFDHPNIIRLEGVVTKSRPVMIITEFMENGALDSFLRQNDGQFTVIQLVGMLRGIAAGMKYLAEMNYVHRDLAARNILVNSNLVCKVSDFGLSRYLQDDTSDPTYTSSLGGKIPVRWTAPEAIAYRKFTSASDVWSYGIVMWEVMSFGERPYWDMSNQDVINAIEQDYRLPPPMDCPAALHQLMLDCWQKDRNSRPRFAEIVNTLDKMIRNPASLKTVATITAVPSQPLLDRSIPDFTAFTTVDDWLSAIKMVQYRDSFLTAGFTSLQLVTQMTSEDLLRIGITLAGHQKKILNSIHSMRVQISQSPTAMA
Chain of Jak2 (O60674 whole entry, looked up): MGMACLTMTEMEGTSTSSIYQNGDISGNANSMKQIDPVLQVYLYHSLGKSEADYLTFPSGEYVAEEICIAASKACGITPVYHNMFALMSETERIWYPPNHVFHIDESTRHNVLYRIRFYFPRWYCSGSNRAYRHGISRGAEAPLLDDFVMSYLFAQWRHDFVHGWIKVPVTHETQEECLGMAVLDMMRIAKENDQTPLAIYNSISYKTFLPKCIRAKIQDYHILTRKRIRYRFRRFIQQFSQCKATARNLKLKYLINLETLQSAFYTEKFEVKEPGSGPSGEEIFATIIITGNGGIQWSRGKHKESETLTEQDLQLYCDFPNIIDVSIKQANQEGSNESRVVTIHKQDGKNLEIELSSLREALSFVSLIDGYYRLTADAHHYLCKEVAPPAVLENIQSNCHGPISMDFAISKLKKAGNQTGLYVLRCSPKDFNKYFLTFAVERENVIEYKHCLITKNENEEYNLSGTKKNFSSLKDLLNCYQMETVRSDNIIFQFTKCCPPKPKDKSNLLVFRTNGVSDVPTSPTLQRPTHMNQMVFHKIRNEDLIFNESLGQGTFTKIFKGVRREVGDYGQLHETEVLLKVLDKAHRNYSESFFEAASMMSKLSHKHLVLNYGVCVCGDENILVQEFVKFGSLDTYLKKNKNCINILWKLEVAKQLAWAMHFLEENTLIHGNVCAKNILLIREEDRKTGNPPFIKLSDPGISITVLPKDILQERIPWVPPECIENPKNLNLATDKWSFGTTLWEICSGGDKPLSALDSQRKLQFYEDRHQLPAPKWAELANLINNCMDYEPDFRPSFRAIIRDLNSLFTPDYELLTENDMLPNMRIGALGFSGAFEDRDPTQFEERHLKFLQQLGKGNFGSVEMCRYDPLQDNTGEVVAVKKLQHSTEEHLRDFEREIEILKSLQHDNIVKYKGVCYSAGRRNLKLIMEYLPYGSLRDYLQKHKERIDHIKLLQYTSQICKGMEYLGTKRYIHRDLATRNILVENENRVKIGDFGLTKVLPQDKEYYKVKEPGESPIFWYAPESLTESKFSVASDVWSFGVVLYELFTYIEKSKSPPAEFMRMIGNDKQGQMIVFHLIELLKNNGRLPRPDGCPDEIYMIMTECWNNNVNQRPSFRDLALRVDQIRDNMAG
Chain of Hck (P08631 whole entry, looked up): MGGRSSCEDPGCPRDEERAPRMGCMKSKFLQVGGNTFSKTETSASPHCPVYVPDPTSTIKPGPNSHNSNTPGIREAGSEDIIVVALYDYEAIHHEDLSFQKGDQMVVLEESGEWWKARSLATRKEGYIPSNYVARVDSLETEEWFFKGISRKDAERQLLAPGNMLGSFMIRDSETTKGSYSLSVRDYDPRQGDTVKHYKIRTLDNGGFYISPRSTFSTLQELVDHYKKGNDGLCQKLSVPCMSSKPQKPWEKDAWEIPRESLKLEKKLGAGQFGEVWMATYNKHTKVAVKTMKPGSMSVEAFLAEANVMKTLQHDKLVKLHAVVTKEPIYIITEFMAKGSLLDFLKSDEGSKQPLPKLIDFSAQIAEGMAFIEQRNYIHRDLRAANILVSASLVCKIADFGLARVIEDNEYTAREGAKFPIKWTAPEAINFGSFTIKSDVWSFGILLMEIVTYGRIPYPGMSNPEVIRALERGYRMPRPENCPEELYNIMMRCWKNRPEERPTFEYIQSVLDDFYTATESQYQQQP
Chain of FGFR1 (P11362 whole entry, looked up): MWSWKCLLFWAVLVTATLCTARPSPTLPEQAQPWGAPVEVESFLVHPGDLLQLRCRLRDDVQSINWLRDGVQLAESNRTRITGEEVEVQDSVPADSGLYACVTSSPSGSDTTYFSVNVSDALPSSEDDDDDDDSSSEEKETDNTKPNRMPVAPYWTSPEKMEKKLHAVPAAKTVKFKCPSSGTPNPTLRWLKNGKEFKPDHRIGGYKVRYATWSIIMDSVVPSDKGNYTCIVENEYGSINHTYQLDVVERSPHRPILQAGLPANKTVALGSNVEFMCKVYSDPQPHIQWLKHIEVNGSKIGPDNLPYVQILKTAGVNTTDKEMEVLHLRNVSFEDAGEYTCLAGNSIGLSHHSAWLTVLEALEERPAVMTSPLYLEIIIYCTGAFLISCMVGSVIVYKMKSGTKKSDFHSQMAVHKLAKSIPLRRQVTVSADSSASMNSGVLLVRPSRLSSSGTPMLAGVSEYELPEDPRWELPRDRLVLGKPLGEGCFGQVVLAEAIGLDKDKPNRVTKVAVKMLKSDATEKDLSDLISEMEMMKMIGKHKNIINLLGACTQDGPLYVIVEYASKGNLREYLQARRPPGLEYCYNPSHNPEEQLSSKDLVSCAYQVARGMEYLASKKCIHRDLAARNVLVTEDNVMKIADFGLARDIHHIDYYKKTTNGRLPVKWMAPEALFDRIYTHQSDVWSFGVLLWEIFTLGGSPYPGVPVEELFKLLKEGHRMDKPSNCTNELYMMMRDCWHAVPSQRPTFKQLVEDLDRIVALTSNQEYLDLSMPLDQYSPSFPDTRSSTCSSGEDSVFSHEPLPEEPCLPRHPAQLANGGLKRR

Row | SH2 binding enrichment (SHP2-C SH2) | SH2 binding enrichment (Grb2 SH2) | SH2 binding enrichment (c-Src SH2) | Sequence | phosphorylation enrichment (Jak2) | phosphorylation enrichment (c-Abl (mouse)) | phosphorylation enrichment (c-Src) | phosphorylation enrichment (FGFR1) | phosphorylation enrichment (EPHB1) | phosphorylation enrichment (Hck) | phosphorylation enrichment (Fer (mouse)) | phosphorylation enrichment (EPHB2) | phosphorylation enrichment (FGFR3) | phosphorylation enrichment (AncSZ) | phosphorylation enrichment (MERTK) | phosphorylation enrichment (Fyn) | phosphorylation enrichment (Fes)
1 | 0.515 | 0.649 | 0.439 | ADEQIYWQIAA [CSKtide_2014] | 1.58 | 5.09 | 4.66 | 7.87 | 2.64 | 4.33 | 2.25 | 1.37 | 6.65 | 2.59 | 3.12 | 5.62 | 1.56
2 | 0.983 | 0.912 | 0.455 | LKDEDYLKDIV [HAUS3_Y582] | 2.87 | 1.64 | 1.02 | 1.04 | 0.861 | 0.787 | 1.4 | 0.843 | 0.988 | 2.21 | 0.884 | 0.791 | 1.85
3 | 0.812 | 0.85 | 0.521 | FEDALYTVLHR [UNC13D_Y61_YF] | 1.4 | 5.92 | 7.03 | 2.49 | 16 | 9.35 | 11.4 | 13.8 | 2.38 | 2.96 | 9.68 | 9.12 | 1.79
4 | 0.236 | 0.512 | 0.255 | IEPVIYVVQRR [ANOS1_Y217] | 1.1 | 0.58 | 0.356 | 0.368 | 0.209 | 0.315 | 0.271 | 0.486 | 0.475 | 1.37 | 0.531 | 0.304 | 1.23
5 | 0.719 | 0.977 | 0.728 | KPPPTYESEEE [BRD4_Y599] | 1.39 | 1.18 | 0.767 | 0.618 | 0.653 | 0.641 | 0.753 | 0.711 | 0.775 | 1.65 | 0.552 | 0.664 | 1.88
6 | 1.11 | 1.23 | 1.12 | LAGRFYALKSM [CKB_Y174_YF] | 1.32 | 1.18 | 0.461 | 0.479 | 0.677 | 0.509 | 0.46 | 0.573 | 0.991 | 1.86 | 0.666 | 0.463 | 1.61
7 | 0.762 | 0.743 | 8.92 | MEIHAYHKLLE [LMNA_Y376_R377H] | 1.03 | 0.691 | 0.441 | 0.474 | 0.475 | 0.552 | 0.422 | 0.588 | 0.746 | 0.974 | 0.403 | 0.445 | 1.25
8 | 0.832 | 0.995 | 0.564 | GFFDLYGGEKF [PTPN11_Y66_D61G_YF] | 0.914 | 0.767 | 2.7 | 0.484 | 0.603 | 3.85 | 0.72 | 0.858 | 0.575 | 0.906 | 0.504 | 2.13 | 1.05
9 | 0.644 | 0.895 | 0.474 | EEQKKNFNAMK [SCN5A_Y1494_Y1494N_YF] | 0.691 | 0.607 | 0.385 | 0.38 | 0.381 | 0.512 | 0.369 | 0.494 | 0.546 | 0.908 | 0.409 | 0.376 | 0.711
10 | 0.767 | 0.984 | 0.53 | GQLIVYAPPEW [CNTN6_Y315_F314V] | 0.932 | 9.23 | 1.75 | 0.513 | 0.574 | 2.22 | 0.619 | 1.66 | 0.665 | 1.02 | 1.37 | 1.81 | 0.985
11 | 1.32 | 1.15 | 1.07 | CTTIHNNFMCN [TP53_Y234_Y234N_YF] | 0.95 | 0.593 | 0.439 | 0.51 | 0.606 | 0.517 | 0.558 | 0.591 | 0.623 | 0.879 | 0.459 | 0.507 | 0.974
12 | 0.687 | 0.972 | 1.37 | WQQQSYLYSGI [CTNNB1_Y30_D32Y] | 1.52 | 0.851 | 5.93 | 1.07 | 3.97 | 7.73 | 5.61 | 5.03 | 1.03 | 1.16 | 7.49 | 7.05 | 1.48
13 | 1.2 | 0.879 | 0.492 | TESNNYIFKTL [FAM83B_Y637_YF] | 0.926 | 0.762 | 0.642 | 0.645 | 0.604 | 0.643 | 0.597 | 1.06 | 0.82 | 1.26 | 0.664 | 0.528 | 1.12
14 | 0.685 | 0.75 | 0.323 | YLEEEYVKAVG [TF_Y674_G671E] | 1.18 | 1.01 | 0.505 | 0.606 | 0.629 | 0.575 | 0.615 | 0.63 | 0.893 | 1.36 | 0.454 | 0.491 | 1.32
15 | 0.623 | 0.742 | 0.598 | YDGGCYEQLFV [MC4R_Y41_S36Y] | 1.21 | 1.01 | 2.71 | 1.18 | 1.24 | 3.08 | 11.4 | 0.968 | 1.45 | 2.51 | 1.17 | 2.04 | 1.38
16 | 0.639 | 0.893 | 1 | WGTAEYDSVVA [MAP1A_Y1883] | 1.18 | 0.703 | 0.819 | 0.583 | 0.685 | 1.16 | 1.57 | 0.86 | 0.817 | 1.4 | 0.456 | 0.66 | 1.24

Row | SH2 binding enrichment (SHP2-C SH2) | SH2 binding enrichment (Grb2 SH2) | SH2 binding enrichment (c-Src SH2) | Sequence | phosphorylation enrichment (Jak2) | phosphorylation enrichment (c-Abl (mouse)) | phosphorylation enrichment (c-Src) | phosphorylation enrichment (FGFR1) | phosphorylation enrichment (EPHB1) | phosphorylation enrichment (Hck) | phosphorylation enrichment (Fer (mouse)) | phosphorylation enrichment (EPHB2) | phosphorylation enrichment (FGFR3) | phosphorylation enrichment (AncSZ) | phosphorylation enrichment (MERTK) | phosphorylation enrichment (Fyn) | phosphorylation enrichment (Fes)
17 | 0.71 | 0.728 | 0.422 | PGAPAYRVLME [MYO5A_Y1245] | 1.06 | 1.52 | 0.423 | 0.379 | 0.397 | 0.564 | 0.671 | 0.585 | 0.726 | 0.592 | 0.566 | 0.542 | 1.29
18 | 1.16 | 1.25 | 0.938 | GSRGKYSSGFC [ATM_Y332_R337C] | 0.545 | 0.611 | 0.472 | 0.446 | 0.441 | 0.431 | 0.401 | 0.406 | 0.539 | 0.495 | 0.51 | 0.464 | 0.559
19 | 1.56 | 1.21 | 1.56 | VQVAYYTMMMN [SPATA17_Y84] | 4.11 | 1.15 | 2.56 | 8.59 | 2.52 | 1.65 | 3.67 | 1.17 | 6.58 | 1.81 | 6.47 | 1.48 | 1.54
20 | 0.761 | 0.969 | 0.944 | GSERDYTYEEL [EIF2S2_Y174] | 1.29 | 0.977 | 1.63 | 0.535 | 0.602 | 1.21 | 0.6 | 0.645 | 0.711 | 1.36 | 0.707 | 1.09 | 1.13
21 | 1.02 | 1.02 | 1.04 | FRDALYKFIVD [PHEX_Y250_M253I_YF] | 0.919 | 0.809 | 0.546 | 0.44 | 0.644 | 0.56 | 0.479 | 0.489 | 0.748 | 1.02 | 0.902 | 0.508 | 1.32
22 | 0.504 | 0.652 | 0.431 | PGLKGYPGLSG [COL4A2_Y306_R304K] | 0.422 | 0.639 | 0.347 | 0.369 | 0.474 | 0.434 | 0.218 | 0.307 | 0.318 | 0.476 | 0.367 | 0.213 | 0.468
23 | 0.637 | 0.626 | 0.548 | QMVGMYASSFM [AVPR2_Y124_YF] | 1.21 | 1.48 | 1.6 | 0.73 | 0.922 | 1.34 | 0.904 | 0.914 | 0.782 | 0.981 | 2.31 | 1.59 | 1.07
24 | 0.612 | 0.664 | 0.421 | QEGPEYWDQQT [HLA-A_Y83_E87Q] | 2.33 | 1.78 | 0.937 | 1.01 | 1.31 | 0.58 | 0.884 | 0.967 | 1.21 | 2.09 | 0.649 | 0.741 | 2.21
25 | 0.662 | 1.07 | 0.693 | TDLAFYLVRKG [ASL_Y376_YF] | 0.946 | 0.611 | 0.361 | 0.497 | 0.65 | 0.67 | 0.541 | 0.725 | 0.988 | 1.4 | 0.506 | 0.545 | 1.27
26 | 0.935 | 0.975 | 0.711 | ENELTYFCCKK [CD59_Y86_YF] | 2.65 | 0.737 | 2.21 | 0.867 | 0.465 | 1.18 | 0.478 | 0.543 | 0.711 | 1.32 | 0.703 | 1.08 | 1.04
27 | 0.583 | 0.877 | 0.568 | FGSRLYKFAFK [FANCD2_Y458_L456R_YF] | 0.582 | 0.456 | 0.515 | 0.399 | 0.354 | 0.439 | 0.311 | 0.557 | 0.484 | 0.571 | 0.406 | 0.433 | 0.651
28 | 1.01 | 0.909 | 0.581 | TIQSMYGCDVG [HLA-B_Y123_L119I] | 0.794 | 0.68 | 0.517 | 0.579 | 0.502 | 0.502 | 0.48 | 0.48 | 0.602 | 0.886 | 0.559 | 0.427 | 1.04
29 | 0.729 | 1.09 | 0.519 | SPFAVYLFFTF [RPGRIP1_Y826_R827L_YF] | 0.891 | 0.754 | 0.425 | 0.467 | 0.434 | 0.361 | 0.335 | 0.744 | 0.63 | 0.99 | 0.34 | 0.477 | 0.925
30 | 0.888 | 0.732 | 0.547 | AGLEDYDRLRP [RAC3_Y64_Q61L] | 0.931 | 0.657 | 0.485 | 0.836 | 0.505 | 0.894 | 0.62 | 0.791 | 0.744 | 1.13 | 0.402 | 0.544 | 0.933
31 | 0.783 | 0.921 | 0.515 | MTFQNYGQALF [FAM20C_Y279] | 0.893 | 0.605 | 0.489 | 0.46 | 0.758 | 0.462 | 0.496 | 1.65 | 0.739 | 0.901 | 0.429 | 0.458 | 0.827

Row | Sequence | SH2 binding enrichment (SHP2-C SH2) | SH2 binding enrichment (Grb2 SH2) | SH2 binding enrichment (c-Src SH2) | phosphorylation enrichment (Jak2) | phosphorylation enrichment (c-Abl (mouse)) | phosphorylation enrichment (c-Src) | phosphorylation enrichment (FGFR1) | phosphorylation enrichment (EPHB1) | phosphorylation enrichment (Hck) | phosphorylation enrichment (Fer (mouse)) | phosphorylation enrichment (EPHB2) | phosphorylation enrichment (FGFR3) | phosphorylation enrichment (AncSZ) | phosphorylation enrichment (MERTK) | phosphorylation enrichment (Fyn) | phosphorylation enrichment (Fes)
32 | PKGTGYIKTEL [STAT1_Y701] | 0.893 | 0.93 | 0.446 | 0.986 | 0.559 | 0.635 | 0.792 | 0.411 | 0.748 | 0.801 | 0.557 | 1.01 | 0.973 | 0.694 | 0.512 | 0.835
33 | LKKKQYTSIHH [APP_Y728] | 2.63 | 1.53 | 1.89 | 0.949 | 1.39 | 1.03 | 0.631 | 0.739 | 0.869 | 0.688 | 0.605 | 0.903 | 0.631 | 0.508 | 0.92 | 0.787
